Experimental data taken from article PMC12582157.

Experiments:
[1] = target: T1, β-conglutin (Lupinus albus (white lupin)?) (UniProt Q53HY0); assay: ELAA; conditions: Binding buffer, salt, pH and temperature not given in the material
T1 sequence: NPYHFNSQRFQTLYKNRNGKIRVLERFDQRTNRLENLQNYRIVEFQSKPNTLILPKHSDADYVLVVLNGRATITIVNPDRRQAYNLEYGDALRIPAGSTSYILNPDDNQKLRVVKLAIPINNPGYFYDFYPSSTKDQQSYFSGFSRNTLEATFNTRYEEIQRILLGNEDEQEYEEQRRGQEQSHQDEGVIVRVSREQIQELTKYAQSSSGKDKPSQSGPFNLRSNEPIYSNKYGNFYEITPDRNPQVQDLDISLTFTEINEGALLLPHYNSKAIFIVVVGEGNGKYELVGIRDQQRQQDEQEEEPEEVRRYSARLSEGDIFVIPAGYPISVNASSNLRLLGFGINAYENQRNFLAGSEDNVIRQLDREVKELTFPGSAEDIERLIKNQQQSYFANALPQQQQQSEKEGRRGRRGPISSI

[2] = target: T1, β-conglutin (Lupinus albus (white lupin)?); assay: MST; conditions: Binding buffer, salt, pH and temperature not given in the material
[3] = target: T1, β-conglutin (Lupinus albus (white lupin)?); assay: BLI; conditions: 1:1 model, Binding buffer, salt
[4] = target: T1, β-conglutin (Lupinus albus (white lupin)?); assay: SPR; conditions: dA outside the 5' primer region (nt 24-94) replaced by indole-modified dA (dAEIn); Binding buffer, salt, pH and temperature not given in the material
[5] = dA outside the 5' primer region (nt 24-94) replaced by indole-modified dA (dAEIn)
[6] = all dA = dAEIn, 5' dC carries Cy5

AGCTCCAGAAGATAAATTACAGGCAAGATCACCGTAGACGCGTCGAGAAGTGTGAGATCCTATGAAATGACCGCAACTAGGATACTATGACCCC [HB7]
Kd ([1]; dA outside 5' primer = dAEIn): 1.1 nM

AGCTCCAGAAGATAAATTACAGGCCAAGATCTCGCGAGTTCCCAACAGGGCAGAGAGATGCCCGACACCAGTG [HB8_T1]
Kd ([2]; dA in nt 24-73 = dAEIn): 42 nM
Kd ([3]; dA in nt 24-73 = dAEIn, pH and temperature not given in the material): 0.6 nM

AGCTCCAGAAGATAAATTACAGGCCAAGATCTCGCGAGTTCCCAACAGGGCAGAGAGATGCCCGACACCAGTGCAACTAGGATACTATGACCCC [HB8]
Kd [2, 5]: 41 nM
Kd [1, 5]: 0.6 nM
Kd ([3]; dA outside the 5' primer region (nt 24-94) replaced by indole-modified dA (dAEIn), pH and temperature not given in the …): 0.9 nM
Kd [4]: 92 nM

AGCTCCAGAAGATAAATTACAGGCCAAGATCTCGCGAGTTCCCAACAGGGCAGAGAGATGCCCGACACCAGTGCAACTAGGATACTATGACCCC [HB8_M1]
Kd ([2]; dAEIn as in HB8 except three central positions following the primer, which are natural dA): 134 nM

AGCTCCAGAAGATAAATTACAGGCCAAGATCTCGCGAGTTCCCAACAGGGCAGAGAGATGCCCGACACCAGTGCAACTAGGATACTATGACCCC [HB8_M2]
Kd ([2]; dAEIn in nt 24-73, 3' 21 nt with natural dA): 44 nM

CCAAGATCTCGCGAGTTCCCAACAGGGCAGAGAGATGCCCGACACCAGTG [HB8_T3]
Kd [2, 6]: 145 nM

CCAAGATCTCGCGAGTTCCCAACAGGGCAGAGAGATGCCCGACACCAGTGCAACTAGGATACTATGACCCC [HB8_T2]
Kd [2, 6]: 256 nM

GATAAATTACAGGCCAAGATCTCGCGAGTTCCCAACAGGGCAGAGAGATGCCCGACACCAGTGCAACTAGGATACTATGACCCC [HB8_T4]
Kd ([2]; dA after the 13 nt primer remainder = dAEIn): 24 nM
